Results from paper PMC6411374, “Substrate channeling in oxylipin biosynthesis through a protein complex in the plastid envelope of Arabidopsis thaliana” (Journal of Experimental Botany, 2019).

T1: AOS (CYP74A) (Arabidopsis thaliana, UniProt Q96242)
T1 construct: free enzyme from SDS-dissociated, dialyzed envelope complex; bacterially expressed C-terminal (His)6 AOS, imported into Arabidopsis chloroplasts (transit peptide cleaved)
T1 sequence (Q96242 34-518): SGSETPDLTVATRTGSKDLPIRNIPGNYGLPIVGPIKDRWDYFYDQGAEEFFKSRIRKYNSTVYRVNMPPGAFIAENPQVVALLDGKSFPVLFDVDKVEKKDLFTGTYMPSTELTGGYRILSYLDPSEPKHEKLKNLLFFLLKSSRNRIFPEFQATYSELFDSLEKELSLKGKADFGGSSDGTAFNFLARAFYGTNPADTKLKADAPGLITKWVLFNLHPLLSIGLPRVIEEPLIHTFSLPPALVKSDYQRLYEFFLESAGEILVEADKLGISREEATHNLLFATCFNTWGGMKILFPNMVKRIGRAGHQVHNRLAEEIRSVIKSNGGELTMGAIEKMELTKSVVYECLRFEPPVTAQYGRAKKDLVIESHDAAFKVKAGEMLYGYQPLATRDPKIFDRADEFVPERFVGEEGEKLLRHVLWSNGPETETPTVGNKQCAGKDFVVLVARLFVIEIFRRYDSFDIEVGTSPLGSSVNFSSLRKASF

T2: C-terminal, (His)6-tagged allene oxide synthase [AOS-(His)6] (A. thaliana, UniProt Q96242 34-518)
T2 construct: allene oxide synthase (AOS, CYP74A), A. thaliana, cDNA of Laudert et al. 1996; also called CYP74A; AtAOS; source: expressed in bacteria, purified to apparent homogeneity by Ni-NTA chromatography; then imported into isolated Arabidopsis chloroplasts; not shown: His6, C-terminal, kept
T2 sequence (looked up): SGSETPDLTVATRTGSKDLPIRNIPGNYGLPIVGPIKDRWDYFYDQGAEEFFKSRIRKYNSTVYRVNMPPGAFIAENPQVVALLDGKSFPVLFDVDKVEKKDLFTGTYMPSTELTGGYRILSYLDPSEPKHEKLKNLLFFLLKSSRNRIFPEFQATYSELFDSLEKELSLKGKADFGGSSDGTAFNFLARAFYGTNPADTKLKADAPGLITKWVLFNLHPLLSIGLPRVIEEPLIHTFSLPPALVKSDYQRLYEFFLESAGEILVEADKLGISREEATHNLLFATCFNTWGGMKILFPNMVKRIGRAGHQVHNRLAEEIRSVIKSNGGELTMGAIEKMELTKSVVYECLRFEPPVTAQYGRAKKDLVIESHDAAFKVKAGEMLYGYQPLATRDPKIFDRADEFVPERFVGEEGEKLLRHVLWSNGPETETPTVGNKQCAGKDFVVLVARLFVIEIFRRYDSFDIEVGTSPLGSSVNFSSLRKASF

T3: soluble, catalytically active AOS used for reconstitution of the complex (A. thaliana, UniProt Q96242 34-518)
T3 construct: allene oxide synthase (AOS, CYP74A), A. thaliana
T3 sequence: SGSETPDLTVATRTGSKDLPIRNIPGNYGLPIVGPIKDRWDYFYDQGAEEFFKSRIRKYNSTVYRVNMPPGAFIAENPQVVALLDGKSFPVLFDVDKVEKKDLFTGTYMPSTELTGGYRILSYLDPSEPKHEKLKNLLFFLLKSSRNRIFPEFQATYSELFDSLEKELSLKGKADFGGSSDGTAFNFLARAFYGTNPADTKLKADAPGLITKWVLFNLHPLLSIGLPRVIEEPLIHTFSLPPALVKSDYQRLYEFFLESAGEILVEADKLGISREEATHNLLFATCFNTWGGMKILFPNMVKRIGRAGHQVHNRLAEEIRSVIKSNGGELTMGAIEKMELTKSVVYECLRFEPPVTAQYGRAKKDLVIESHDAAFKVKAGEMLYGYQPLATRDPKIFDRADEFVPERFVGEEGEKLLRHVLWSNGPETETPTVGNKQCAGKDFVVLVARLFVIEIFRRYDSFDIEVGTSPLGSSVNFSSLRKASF


Columns and labels:
AOS (CYP74A) = molecular target: T1, AOS (CYP74A); assay: cis-(+)-12-OPDA formation by free enzymes, HPLC / GC-MS; format: biochemical; details: free enzymes (SDS-dissociated, dialyzed complex), read-out coupled through AOC2; 10 min
[1] = molecular target: LOX2-AOS-AOC2 plastid envelope complex (Arabidopsis thaliana, UniProt P38418); details: intact complex, coupled LOX2-AOS-AOC2 turnover; α-LeA is the LOX2 substrate
[2] = molecular target: T2, C-terminal, (His)6-tagged allene oxide …; assay: pull-down; purified (His)6-tagged bait imported into isolated Arabidopsis chloroplasts (2.5 mM Mg-ATP); mixed envelopes solubilised with 1.3% decyl maltoside; Ni-NTA affinity chromatography, size exclusion on Superose 6 (peak I, ~250 kDa); co-purified bands identified by SDS-PAGE with protein sequencing, LOX2 also by western blot; details: one partner purified
[3] = molecular target: T2, C-terminal, (His)6-tagged allene oxide …; assay: cell-based or functional assay
[4] = molecular target: the molecule itself; assay: SDS-PAGE with protein sequencing; bands of the proteins co-purified with AOS-(His)6 in peak I; ~72 kDa and ~24 kDa bands both sequenced as AOC2
[5] = molecular target: T3, soluble, catalytically active AOS used …; assay: reconstitution of the complex in vitro; complex reconstituted from soluble, catalytically active LOX2, AOS and AOC2 and isolated plastid envelope lipids (Supplementary Fig. S8)

Row | Molecule | stoichiometry N [2] | rate of cis-(+)-12-OPDA formation from α-LeA by the intact LOX2-AOS-AOC2 envelope complex against the free-enzyme assay (complex dissociated with SDS and dialysed) [3] [fold] | stoichiometry N [5] | further results
1 | CC/C=C\C[C@@H](/C=C/C=C\CCCCCCCC(=O)O)OO [13-HPOT, (9Z11E15Z13S)-13-hydroperoxy-9,11,15-octadecatrienoic acid] |  |  |  | cis-(+)-12-OPDA formation by free enzymes, HPLC / GC-MS (AOS (CYP74A)): but it was accepted in the free-enzyme assay (Fig. 5C)
2 | CC/C=C\C/C=C\C/C=C\CCCCCCCC(=O)O [α-linolenic acid] |  |  |  | cis-(+)-12-OPDA formation by isolated complex, HPLC / GC-MS [1]: α-LeA was converted to cis-(+)-12-OPDA by the isolated, intact (non-SDS-dissociated) plastid envelope complex
3 | allene oxide cyclase 2 (AOC2), endogenous in the envelope of Arabidopsis chloroplasts (enzyme, UniProt Q9LS02 78-253, looked up, allene oxide cyclase 2 (AOC2), A. thaliana, ~72 kDa (SDS-resistant trimer) and ~24 kDa (monomer) bands of the plastid envelope; Found both as trimer and as monomer; source: endogenous, envelopes of isolated Arabidopsis chloroplasts) PSKVQELSVYEINELDRHSPKILKNAFSLMFGLGDLVPFTNKLYTGDLKKRVGITAGLCVVIEHVPEKKGERFEATYSFYFGDYGHLSVQGPYLTYEDSFLAITGGAGIFEGAYGQVKLQQLVYPTKLFYTFYLKGLANDLPLELTGTPVPPSKDIEPAPEAKALEPSGVISNYTN | 4 | 120 |  | stoichiometry N [4]: 3
4 | lipoxygenase 2 (LOX2), endogenous in the envelope of Arabidopsis chloroplasts (enzyme, UniProt P38418 57-896, looked up, lipoxygenase 2 (LOX2), A. thaliana, ~100 kDa band of the plastid envelope; also called 13-lipoxygenase; source: endogenous, envelopes of isolated Arabidopsis chloroplasts) ANIEQEGNTVKEPIQNIKVKGYITAQEEFLEGITWSRGLDDIADIRGRSLLVELISAKTDQRITVEDYAQRVWAEAPDEKYECEFEMPEDFGPVGAIKIQNQYHRQLFLKGVELKLPGGSITFTCESWVAPKSVDPTKRIFFSDKSYLPSQTPEPLKKYRKEELETLQGKNREEVGEFTKFERIYDYDVYNDVGDPDNDPELARPVIGGLTHPYPRRCKTGRKPCETDPSSEQRYGGEFYVPRDEEFSTAKGTSFTGKAVLAALPSIFPQIESVLLSPQEPFPHFKAIQNLFEEGIQLPKDAGLLPLLPRIIKALGEAQDDILQFDAPVLINRDRFSWLRDDEFARQTLAGLNPYSIQLVEEWPLISKLDPAVYGDPTSLITWEIVEREVKGNMTVDEALKNKRLFVLDYHDLLLPYVNKVRELNNTTLYASRTLFFLSDDSTLRPVAIELTCPPNINKPQWKQVFTPGYDATSCWLWNLAKTHAISHDAGYHQLISHWLRTHACTEPYIIAANRQLSAMHPIYRLLHPHFRYTMEINARARQSLVNGGGIIETCFWPGKYALELSSAVYGKLWRFDQEGLPADLIKRGLAEEDKTAEHGVRLTIPDYPFANDGLILWDAIKEWVTDYVKHYYPDEELITSDEELQGWWSEVRNIGHGDKKDEPWWPVLKTQDDLIGVVTTIAWVTSGHHAAVNFGQYGYGGYFPNRPTTTRIRMPTEDPTDEALKEFYESPEKVLLKTYPSQKQATLVMVTLDLLSTHSPDEEYIGEQQEASWANEPVINAAFERFKGKLQYLEGVIDERNVNITLKNRAGAGVVKYELLKPTSEHGVTGMGVPYSISI | 1 | 120 |  | 

Further lines, with some results ahead:

Row | stoichiometry N [2] | rate of cis-(+)-12-OPDA formation from α-LeA by the intact LOX2-AOS-AOC2 envelope complex against the free-enzyme assay (complex dissociated with SDS and dialysed) [3] [fold] | stoichiometry N [5] | Molecule | further results
5 |  |  | 4 | soluble, catalytically active AOC2 used for reconstitution of the complex (enzyme, A. thaliana, allene oxide cyclase 2 (AOC2), A. thaliana) PSKVQELSVYEINELDRHSPKILKNAFSLMFGLGDLVPFTNKLYTGDLKKRVGITAGLCVVIEHVPEKKGERFEATYSFYFGDYGHLSVQGPYLTYEDSFLAITGGAGIFEGAYGQVKLQQLVYPTKLFYTFYLKGLANDLPLELTGTPVPPSKDIEPAPEAKALEPSGVISNYTN | 
6 |  |  | 1 | soluble, catalytically active LOX2 used for reconstitution of the complex (enzyme, A. thaliana, UniProt P38418 57-896, looked up, lipoxygenase 2 (LOX2), A. thaliana) ANIEQEGNTVKEPIQNIKVKGYITAQEEFLEGITWSRGLDDIADIRGRSLLVELISAKTDQRITVEDYAQRVWAEAPDEKYECEFEMPEDFGPVGAIKIQNQYHRQLFLKGVELKLPGGSITFTCESWVAPKSVDPTKRIFFSDKSYLPSQTPEPLKKYRKEELETLQGKNREEVGEFTKFERIYDYDVYNDVGDPDNDPELARPVIGGLTHPYPRRCKTGRKPCETDPSSEQRYGGEFYVPRDEEFSTAKGTSFTGKAVLAALPSIFPQIESVLLSPQEPFPHFKAIQNLFEEGIQLPKDAGLLPLLPRIIKALGEAQDDILQFDAPVLINRDRFSWLRDDEFARQTLAGLNPYSIQLVEEWPLISKLDPAVYGDPTSLITWEIVEREVKGNMTVDEALKNKRLFVLDYHDLLLPYVNKVRELNNTTLYASRTLFFLSDDSTLRPVAIELTCPPNINKPQWKQVFTPGYDATSCWLWNLAKTHAISHDAGYHQLISHWLRTHACTEPYIIAANRQLSAMHPIYRLLHPHFRYTMEINARARQSLVNGGGIIETCFWPGKYALELSSAVYGKLWRFDQEGLPADLIKRGLAEEDKTAEHGVRLTIPDYPFANDGLILWDAIKEWVTDYVKHYYPDEELITSDEELQGWWSEVRNIGHGDKKDEPWWPVLKTQDDLIGVVTTIAWVTSGHHAAVNFGQYGYGGYFPNRPTTTRIRMPTEDPTDEALKEFYESPEKVLLKTYPSQKQATLVMVTLDLLSTHSPDEEYIGEQQEASWANEPVINAAFERFKGKLQYLEGVIDERNVNITLKNRAGAGVVKYELLKPTSEHGVTGMGVPYSISI | 
